Assay results: the DeepSol protein solubility set

Assay: soluble on expression in E. coli; label from the status in PepcDB or PDB records

Sequence	soluble on expression in E. coli
MSQSRDLQGGKAFGLLKAQQEERLEGINKQFLDDPKYSNDEDLPSKLEAFKVKYMEFDLNGNGDIDIMSLKRMLEKLGVPKTHLELKRLIREVSSGSEETFSYSDFLRMMLGKRSAILRMILMYEEKNKEHKRPTGPPAKKAISELP	soluble
MGSDKIHHHHHHMHLELRHLRTIRAIHQAGGLARAADVLHMTQSALSHQVKGLEDQAGIELFVRRSKPLKLSAAGIRLLRLAERILPEIDALEDEFRALRSGRTGRLHIAIECHACFEWLFPVLELFRHAWPEIDVDIRAGLAFEALPALMREEVDLVISSDPVTVEGMVFNPLFDYHPTFVAAASNPLAAREFISAEDFRDQMLITYPVSRDRLDVFTEVLTPAKVEPRGTRQVELTAVILMLVASNRGVSVLPDWVLRDVRSHADYVTRPLGPKTVTKRLYAATRTEDATKPFMAHFLRLGRSEPVKLQRA	not soluble
MSLSKMEINKRALKENMALLACPICGEAFEFKEPQSFVCLEGHGFDIAKPGYVHLLKQAHKTKYDQALFESRKKVIASGFFEKLIERVTEIIAEKKKEQLVLYDAGCGEGSHLARVVSNLQATGVNVQAVGLDIAKEGVKQAARDYPGTSWTVADLANCPNQAETADVILNILSPSNYVEFKRLLKKDGFLLKVVPEANYLRELREFIYVDEKSSYSNESVTSRLAEKLSVEHVERVTYKAPIAKELFADFLEMTPLGWHIEADKKSELLGNPPEELTVDLQIIIANRAHLLEGHHHHHH	soluble
MYCPFCHNDQSRVIDSRVIDSGSAIRRRRECTQCKNRFTTVEKAQLLVVKRNGLTEPFSREKVIVGVRRACQGRDVSDDALKRLAQQVEERVRLHGSSQIHANEIGLAILEPLRELDEVAYLRFASVYKSFESADDFESEIRLMRRRDRSN	not soluble
MGSDKIHHHHHHMNINSETKYCQTCGIPLDIDYTNLKADQNEEYCDYCLKNGVKLYDFSMDYLIYLWGLFPEEYYKEVGIRHTSSELREIMSRRLPEIKRWKQKINTAHIQYELVIRVQEYINCHLFDDLDSEKLSQIVCISKYHFRRLFKAVCGDSLGNYIQRLRLEYIAFKLISTNVSVSEILSQINYQNKHTLSRAFKNYFNCSIPEFRKRHSNACSEGKNPIQIEPSIERVPHTRIAYLKLERTHHVSHSFSVLWKQVLQFSESYGLLSKGCKYVSLTLDYPFITLEEQSRFMVGVTLPQSFKIPKGFGVYEVPAGEYAIFRFKGLYHELNRVYRYIYLDWLPANDYSLREPFTFETYINTPEKTPVSELITDIYIPVKKKEI	not soluble
PVYVDFDVPADLEDDALEALEVARDTGAVKKGTNETTKSIERGSAELVFVAEDVQPEEIVMHIPELADEKGVPFIFVEQQDDLGHAAGLEVGSAAAAVTDAGAAATVLEEIADKVEELR	soluble
MWNNVTTIKIQFHRIEQLGSVQLDDKNRICKFTSFDGQLELQGRHGRCSVDIESPEFVRFVQFLVNKTEKSNEPIDQRRVFGKFRALEHGVLDVTTYRNRFHGVVARNMILLDNLSIDLSIRMIFALSGKMETNFLSEVEKHGIVRLDNQNRIIEYVANDGKMKLKGQHDGRKDHGTQATQDPV	not soluble
MSGLPCNERMDCTQCPKAVENSIHYTHNKKGFHLPPHKCETNILFFLLKGQILINSEEYAGTIINSGEFVLQAIASKVEILAMTDSEGILYTFDDPKAFCYDRYTYILKNVPPPLISEPLKIKPEIKLFLEGVASYLNADKICKELLEFKRKELYYLLAHYYTDYELSPVVHSLSQYTSSFEYFILKHHKQIKSVEEFAQLGGYSVTTFRRIFKAIFNEPAYEWMMKQRKESILYQLRYTDASISEICFGHGFESLSHFSNFCKKSFGDSPRNIRKKEKEEISPNT	not soluble
MVDQQDTFAEYFKNWYIFYKKPKVSKVTLNRYQYTYNVINEYFGNKLLKDITRANYQKFIVKYGQNHSPNTMKMINNCIKACVKNAVYDEEIKKDFTYNIELISNRDNVVQLEHHHHHH	soluble
MAKNAPRFVCQACGAVYPRWMGRCEACGEWNSIAEEAPAEALPKGQTGGRGGQRLSFVSLEGVGAPPPRLLTGIPELDRVAGGGLVAGSALLIGGDPGIGKSTLLLQAVAGLARGGARSVYISGEEAIDQVRLRALRLGLEKAPVDLAAATSVRDIVATLDSGEPPDVVVIDSIQTMYLDTLDSAPGTVAQVRAGSHELIRLAKRRGFVLFLVGHVTKEGQMAGPRVMEHMVDAVIYFEGERGHPFRILRAVKNRFGATDEIGVFEMSDAGLSEVPNPSALFLAERRGNVTGSCVFAGMEGTRPMLVEIQALVGPSAPGSARRAVVGWDGGRLAMVMAVLETRCGLALGGNDVYLNVAGGLRIGEPAADLAVAAALVSSFSGVPVPPDMVVFGEIGLSGEIRAVAHGDTRLKEAAKLGFDQALMPARPRDSGKRGGPGVKEGLRMREIGHLQDLVALLAPPENAGQGQRLEHHHHHH	soluble
MSLVFVACGLNHKTAPIHVREKVALQPAMQDSLLSSLLDLPEVNEAAILSTCNRTEIYCDTNTPEVLGNWLAHEHQLSEELLSQFLYIHQGKEGIKHTLRVASGLDSMMIGEPQILGQMKQAYQHACRLGTVKTQLRPVFEYIFRASKRIRTRSGIGANPVSIAYAAVQLIGQLFKNYHSLSVFLIGSGETASLVAKYLHQHGVHRFLIASRTLENAQKLAETFGGKTLSIGDIPQYLPLADVVISATACPLPFINKSLVEHALEQRNHAPMFLLDLAVPRDIEGNVNELEQVHLYNVDDLQSMIEKGMDERRNAALQAEQLIESELDNYIRWHRSLRAKDVICDYRNQMHTLAQQELQRALKKISAGQNQQDVLNEFSMRLVNKLTHNPTIGLRQIAWDNREDLLDLARYLFDTTANQSLYEEISEGHHHHHH	not soluble
AHHHHHHGSIEVRFHGRGGQGAVTAANILAEAAFLEGKYVQAFPFFGVERRGAPVTAFTRIDNKPIRIKTQIYEPDVVVVLDPSLLDAVDVTAGLKDEGIVIVNTEKSKEEVLEKLKKKPKKLAIVDATTIALEILGLPITNTAILGAVAKATGLVKIESIEEAIKDTFSGELGEKNARAAREAYEKTEVFEL	soluble
GMTTSEHIAALTALVETYVMAMTRGDRPALERIFFGKASEVGHYEGELLWNSRDAFIAMCEDAADAETDPFWAISSVSVQGDIAMLHVENDWAGMRFDDFLTVLLHEGSWRIVSKVYRIR	soluble
STPELLSGHIPPGHIPKPIVMPDYVAKYPVIQTDDDRERYKAVFQDQFSEYKELSAEVQAILRKFDELDTVMSRLPHHSENRQEHERISRIHEEFRKKKNDPSFLEKKERCDYLKNKLSHIKQRIQEYDKVMNWDTQGYP	soluble
MGSDKIHHHHHHMENLTLKGKVILEGIIELETGMHIGGTKETLKIGGTDNPVIRDAFGRILIPGSSLKGKIRALLERKDGKYKEDGRGNYLPHDCGECEICKIFGPHDSKNIKEPVRVIVRDAYLQPEENKKDYDYLEIKVENTIDRLKGTTIKGGIRNMERVVAGSKFKFEVVFNIYKESDKELIKKFIEGMKLLEDDYLGGSGSRGYGKIKFRDIKLICKPKEYYEGNENSKKESDEVESLNELESELDKIWGGINFN	not soluble
SSNAKFDQFSSDFQTFNAKFDQFSNDMNAFRSDFQAFKDDFARFNQRFDNFATKYR	soluble
RIIEINPEEGWVRVEAGVIKDQLNQFLKPYGYFFAPELSTSNRATLGGMINTDASGQGSLVYGKTSDHVLGLRAVLMGGDILDTQAVPVALAETLGNTPSTVGRIYNTVYQRCKAQRDLIIDKFPKLNRFLTGYDLRHVFNDEMSEFDLTRILTGSEGTLAFITEARLDITRLP	not soluble
MELDDALDELSDSLGQRQPDPDENKPLDDKVKEKIKAEHSEKLGERDDTIPPEYRHLLDNDGKDKPEKPLTKNTEKPGQDQDPIDALSEDLDSCP	soluble
MEELRFNSVFDIIGPVMIGPSSSHTAGAARIGKVVRSIFGQQPDSVDIYLYESFAKTYRGHGTDIALVGGLLGMEPDDEQLSNSLEIAYEQGMEVCFIPKSEKADHPNSVKIVVSSGDRKLSVTGISIGGGNIQISELNGFKLSLSMGTPTFIVVHQDVPGMIAKVTNILSASDINISTMTVTRESKGEKAIMIIEVDQAEVGDIVMQLAEIPHIYSVNYFD	not soluble
MNWVTHKPTFEFDNFSPFIRANTAWLGHLEFAYDLVRFEKPEILVELGTHMGASFFSFCQGVKDGGLATKCFAVDTWTGDGHTGPYGEGVFHIVDKVVKTSYPNIGNLIKSTFDEAVDQFQDGTINLLHIDGYHTYEAVSHDYKTWLPKLADNGIVLFHDIEVKDRNFGVYKFWDEVKAKYPHFQFQHSYGLGVLFPKGCSDRFKEILKNKEEIQDMYKLEHHHHHH	soluble
SSKSLKKLVEESREKNQPEVDMSDRGISNMLDVNGLFTLSHITQLVLSHNKLTMVPPNIAELKNLEVLNFFNNQIEELPTQISSLQKLKHLNLGMNRLNTLPRGFGSLPALEVLDLTYNNLSENSLPGNFFYLTTLRALYLSDNDFEILPPDIGKLTKLQILSLRDNDLISLPKEIGELTQLKELHIQGNRLTVLPPELGNLDLTGQKQVFKAENNPWVTPIADQFQLGVSHVFEYIRSETYKYLYGRHMQANPEPPKKNNDKSKKISRKPLAAKNR	soluble
MSATLPCGMHKCQRLCHKGECLVDEPCKQPCTTPRADCGHPCMAPCHTSSPCPVTACKAKVELQ	soluble
MSLSELAVTEAEKGQDMIRSAVGEIKITNASLACYSWPRAQPIQNGLHTYVNVNIAITKIETDIGITGYGIGRNNPGENAIRHQFLSTMIGKDPTATAAVWAQLWSPKLYGRRGQETKALSSIDMALWDIKGKIAGMPIWRLLGGYRNRIPTYVAGGYYAKGKGLKDLQQEMANHVERGARGVKMKVGAVDIAEDVERINAVRKALGPDIKLMIDANCAYTYFDAIRLAKRVEEFDIYWFEEPVQPDDYEGFTKLSRATSIPLATGENEYTKHGFRDLIATQAISFLQPDARYMGGVTEFMKVAAMAEAHGLVICPHGDQQAHIQLLGAIPNAHLLEFYPKELNPMFGSVYKHTPDLNEDGTVTIPDVPGMATEPNEKMLERYRVAEGHHHHHH	soluble
SKGKLGEKISQFKIVEELKAKGLYAYFRPIQSKQDTEVKIDGRRVLMFGSNSYLGLTTDTRIIKAAQDALEKYGTGCAGSRFLNGTLDIHVELEEKLSAYVGKEAAILFSTGFQSNLGPLSCLMGRNDYILLDERDHASIIDGSRLSFSKVIKYGHNNMEDLRAKLSRLPEDSAKLICTDGIFSMEGDIVNLPELTSIANEFDAAVMVDDAHSLGVIGHKGAGTASHFGLNDDVDLIMGTFSKSLASLGGFVAGDADVIDFLKHNARSVMFSASMTPASVASTLKALEIIQNEPEHIEKLWKNTDYAKAQLLDHGFDLGATESPILPIFIRSNEKTFWVTKMLQDDGVFVNPVVSPAVPAEESLIRFSLMATHTYDQIDEAIEKMVKVFKQAEVETLI	soluble
SDLVITQELARAESQQDAASLKKAYELIKSANLGKSEFDPSESFSPDLFVLCAEQALKMRQPEVSEDCIQMYFKVKAPITQFLGRAHLCRAQMCAPKSAENLEEFENCVTEYMKAINFAKGEPRYYFLVYNASVLYWQMVRPFLKPGYRHHLIPSLSQIINVLSQTEEEDKEWRAELMLELLECYLQAGRKEEAARFCSTAAPFIKSHVPQKYRQIFSVMVNQRIRNRDVRSNFLKSHCSENCVEIT	soluble
